# Results reported in publication PMC10483697.
# Target: truncated HsDNPH1 (Homo sapiens 2′-deoxynucleoside 5′-phosphate N-hydrolase 1) (human) (UniProt O43598)
# Experiment: crystal structure; HsDNPH1^Trunc at 8 mg/mL in 30 mM Tris-HCl pH 7.5, 150 mM NaCl, hanging drop, 20 °C, reservoir pH 4.0 with 20% PEG 1500; unliganded crystals and crystals soaked with 50 mM dUMP
substance,measurement,value
truncated HsDNPH1 (Homo sapiens 2′-deoxynucleoside 5′-phosphate N-hydrolase 1) (from UniProt O43598 20-162) (enzyme),stoichiometry N,2
